Experimental data reported in doi:10.1101/854158 (bioRxiv, 2019).

Assays:
Experiment in all cases: cryo-EM structure
FANCC = molecular target: T1, FANCC (human, UniProt Q00597 1-558)
T1 sequence: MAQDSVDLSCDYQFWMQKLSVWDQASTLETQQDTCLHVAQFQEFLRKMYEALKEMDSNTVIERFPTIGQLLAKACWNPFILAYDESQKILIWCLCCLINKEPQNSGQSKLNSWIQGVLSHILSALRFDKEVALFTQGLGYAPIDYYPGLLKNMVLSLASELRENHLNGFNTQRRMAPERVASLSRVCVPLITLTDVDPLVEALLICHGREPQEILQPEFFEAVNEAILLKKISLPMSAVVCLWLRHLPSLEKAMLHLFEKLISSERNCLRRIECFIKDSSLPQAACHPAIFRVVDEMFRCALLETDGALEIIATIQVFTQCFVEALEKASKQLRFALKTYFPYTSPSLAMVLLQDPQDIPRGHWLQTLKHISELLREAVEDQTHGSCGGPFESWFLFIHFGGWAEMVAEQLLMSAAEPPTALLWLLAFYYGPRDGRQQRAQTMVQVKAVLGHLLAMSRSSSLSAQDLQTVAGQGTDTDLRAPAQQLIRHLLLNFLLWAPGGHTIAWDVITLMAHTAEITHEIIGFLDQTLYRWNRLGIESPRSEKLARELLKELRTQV

FANCI = molecular target: T2, FANCI (human, UniProt Q9NVI1 1-1328)
T2 sequence: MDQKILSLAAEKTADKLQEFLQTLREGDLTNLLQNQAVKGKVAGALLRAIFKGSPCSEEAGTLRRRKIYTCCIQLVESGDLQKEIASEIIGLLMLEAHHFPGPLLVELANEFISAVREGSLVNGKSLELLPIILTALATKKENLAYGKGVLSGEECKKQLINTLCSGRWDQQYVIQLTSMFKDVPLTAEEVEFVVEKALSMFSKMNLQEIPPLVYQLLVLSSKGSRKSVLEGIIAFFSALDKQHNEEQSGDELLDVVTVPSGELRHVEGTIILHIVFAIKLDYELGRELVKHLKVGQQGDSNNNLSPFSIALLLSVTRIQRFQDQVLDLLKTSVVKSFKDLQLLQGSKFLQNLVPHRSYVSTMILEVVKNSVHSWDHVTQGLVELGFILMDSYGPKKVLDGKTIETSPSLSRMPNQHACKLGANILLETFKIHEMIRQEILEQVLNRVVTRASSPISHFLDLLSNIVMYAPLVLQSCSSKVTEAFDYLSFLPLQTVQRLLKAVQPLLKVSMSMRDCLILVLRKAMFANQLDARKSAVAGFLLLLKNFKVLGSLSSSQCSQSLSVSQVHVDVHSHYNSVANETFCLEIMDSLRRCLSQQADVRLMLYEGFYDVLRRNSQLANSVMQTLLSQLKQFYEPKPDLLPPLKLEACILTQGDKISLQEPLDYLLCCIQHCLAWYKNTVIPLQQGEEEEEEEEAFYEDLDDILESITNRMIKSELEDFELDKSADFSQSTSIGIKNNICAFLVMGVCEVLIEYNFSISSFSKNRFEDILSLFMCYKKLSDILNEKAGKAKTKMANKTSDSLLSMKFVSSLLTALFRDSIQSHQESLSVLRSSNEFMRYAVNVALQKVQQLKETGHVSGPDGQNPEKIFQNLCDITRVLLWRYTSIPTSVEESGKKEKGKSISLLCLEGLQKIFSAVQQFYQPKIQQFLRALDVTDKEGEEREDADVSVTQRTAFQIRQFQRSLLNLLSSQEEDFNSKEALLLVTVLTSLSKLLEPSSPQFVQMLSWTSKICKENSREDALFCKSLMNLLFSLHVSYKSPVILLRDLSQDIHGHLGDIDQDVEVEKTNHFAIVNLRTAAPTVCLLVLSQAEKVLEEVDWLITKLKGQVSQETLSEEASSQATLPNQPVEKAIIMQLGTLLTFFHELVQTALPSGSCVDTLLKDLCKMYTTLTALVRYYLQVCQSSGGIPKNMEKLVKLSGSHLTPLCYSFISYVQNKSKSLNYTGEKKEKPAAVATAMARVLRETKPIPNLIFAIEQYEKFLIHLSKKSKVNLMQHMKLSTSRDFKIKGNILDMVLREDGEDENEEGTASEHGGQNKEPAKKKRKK

FANCE = molecular target: T3, FANCE (human, UniProt Q9HB96 1-536)
T3 sequence: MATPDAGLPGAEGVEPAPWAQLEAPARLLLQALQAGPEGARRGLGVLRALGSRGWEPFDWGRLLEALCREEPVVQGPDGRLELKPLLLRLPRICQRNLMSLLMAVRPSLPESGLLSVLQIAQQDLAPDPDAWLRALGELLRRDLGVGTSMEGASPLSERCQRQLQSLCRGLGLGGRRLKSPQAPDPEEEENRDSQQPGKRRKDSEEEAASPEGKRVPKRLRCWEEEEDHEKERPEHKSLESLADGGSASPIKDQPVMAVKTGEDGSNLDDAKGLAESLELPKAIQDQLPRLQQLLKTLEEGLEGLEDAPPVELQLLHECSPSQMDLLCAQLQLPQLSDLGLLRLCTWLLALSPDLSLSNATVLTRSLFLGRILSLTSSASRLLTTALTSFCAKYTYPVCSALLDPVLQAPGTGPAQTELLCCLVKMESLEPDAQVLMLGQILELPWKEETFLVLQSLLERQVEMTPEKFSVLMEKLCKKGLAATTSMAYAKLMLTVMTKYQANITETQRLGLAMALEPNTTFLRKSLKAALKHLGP

- binding result (FANCC): binds
- binding result (FANCI): binds
- binding result (FANCE): binds
B1: FANCL (enzyme)
chain: MAVTEASLLRQCPLLLPQNRSKTVYEGFISAQGRDFHLRIVLPEDLQLKNARLLCSWQLRTILSGYHRIVQQRMQHSPDLMSFMMELKMLLEVALKNRQELYALPPPPQFYSSLIEEIGTLGWDKLVYADTCFSTIKLKAEDASGREHLITLKLKAKYPAESPDYFVDFPVPFCASWTPQSSLISIYSQFLAAIESLKAFWDVMDEIDEKTWVLEPEKPPRSATARRIALGNNVSINIEVDPRHPTMLPECFFLGADHVVKPLGIKLSRNIHLWDPENSVLQNLKDVLEIDFPARAILEKSDFTMDCGICYAYQLDGTIPDQVCDNSQCGQPFHQICLYEWLRGLLTSRQSFNIIFGECPYCSKPITLKMSGRKH
